# Source: patent US20250360126
# T1: NPM2 (embryonic NPM1 paralog)
# T1 sequence (Q86SE8 1-214, species assumed, looked up): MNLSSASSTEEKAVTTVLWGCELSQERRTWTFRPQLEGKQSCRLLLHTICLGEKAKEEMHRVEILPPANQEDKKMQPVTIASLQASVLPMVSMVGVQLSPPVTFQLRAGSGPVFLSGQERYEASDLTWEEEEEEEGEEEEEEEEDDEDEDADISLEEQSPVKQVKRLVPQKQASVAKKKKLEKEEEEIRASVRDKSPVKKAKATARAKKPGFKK
# B1: CCP5 (cytosolic carboxypeptidase-like 5) (enzyme, UniProt Q8NDL9 1-886, looked up, species assumed)
# Cytosolic carboxypeptidase-like protein 5: MELRCGGLLFSSRFDSGNLAHVEKVESLSSDGEGVGGGASALTSGIASSPDYEFNVWTRPDCAETEFENGNRSWFYFSVRGGMPGKLIKINIMNMNKQSKLYSQGMAPFVRTLPTRPRWERIRDRPTFEMTETQFVLSFVHRFVEGRGATTFFAFCYPFSYSDCQELLNQLDQRFPENHPTHSSPLDTIYYHRELLCYSLDGLRVDLLTITSCHGLREDREPRLEQLFPDTSTPRPFRFAGKRIFFLSSRVHPGETPSSFVFNGFLDFILRPDDPRAQTLRRLFVFKLIPMLNPDGVVRGHYRTDSRGVNLNRQYLKPDAVLHPAIYGAKAVLLYHHVHSRLNSQSSSEHQPSSCLPPDAPVSDLEKANNLQNEAQCGHSADRHNAEAWKQTEPAEQKLNSVWIMPQQSAGLEESAPDTIPPKESGVAYYVDLHGHASKRGCFMYGNSFSDESTQVENMLYPKLISLNSAHFDFQGCNFSEKNMYARDRRDGQSKEGSGRVAIYKASGIIHSYTLECNYNTGRSVNSIPAACHDNGRASPPPPPAFPSRYTVELFEQVGRAMAIAALDMAECNPWPRIVLSEHSSLTNLRAWMLKHVRNSRGLSSTLNVGVNKKRGLRTPPKSHNGLPVSCSENTLSRARSFSTGTSAGGSSSSQQNSPQMKNSPSFPFHGSRPAGLPGLGSSTQKVTHRVLGPVREPRSQDRRRQQQPLNHRPAGSLAPSPAPTSSGPASSHKLGSCLLPDSFNIPGSSCSLLSSGDKPEAVMVIGKGLLGTGARMPCIKTRLQARPRLGRGSPPTRRGMKGSSGPTSPTPRTRESSELELGSCSATPGLPQARPPRPRSAPAFSPISCSLSDSPSWNCYSRGPLGQPEVCFVPKSPPLTVSPRV
# System: T1, NPM2 (embryonic NPM1 paralog)
protein,measurement,value
B1,"deglutamylation of substrate, blot (FIG. 2C)",the CCP5 enzyme deglutamylates NPM2
